From IntAct's records for PubMed 23136403

B1: Catenin alpha-3 (Homo sapiens), Q9UI47-1 (parent)
chain: MSAETPITLNIDPQDLQVQTFTVEKLLEPLIIQVTTLVNCPQNPSSRKKGRSKRASVLLASVEEATWNLLDKGEKIAQEATVLKDELTASLEEVRKESEALKVSAERFTDDPCFLPKREAVVQAARALLAAVTRLLILADMIDVMCLLQHVSAFQRTFESLKNVANKSDLQKTYQKLGKELENLDYLAFKRQQDLKSPNQRDEIAGARASLKENSPLLHSICSACLEHSDVASLKASKDTVCEEIQNALNVISNASQGIQNMTTPPEPQAATLGSALDELENLIVLNPLTVTEEEIRPSLEKRLEAIISGAALLADSSCTRDLHRERIIAECNAIRQALQDLLSEYMNNAGKKERSNTLNIALDNMCKKTRDLRRQLRKAIIDHVSDSFLDTTVPLLVLIEAAKNGREKEIKEYAAIFHEHTSRLVEVANLACSMSTNEDGIKIVKIAANHLETLCPQIINAALALAARPKSQAVKNTMEMYKRTWENHIHVLTEAVDDITSIDDFLAVSESHILEDVNKCIIALRDQDADNLDRAAGAIRGRAARVAHIVTGEMDSYEPGAYTEGVMRNVNFLTSTVIPEFVTQVNVALEALSKSSLNVLDDNQFVDISKKIYDTIHDIRCSVMMIRTPEELEDVSDLEEEHEVRSHTSIQTEGKTDRAKMTQLPEAEKEKIAEQVADFKKVKSKLDAEIEIWDDTSNDIIVLAKNMCMIMMEMTDFTRGKGPLKHTTDVIYAAKMISESGSRMDVLARQIANQCPDPSCKQDLLAYLEQIKFYSHQLKICSQVKAEIQNLGGELIMSALDSVTSLIQAAKNLMNAVVQTVKMSYIASTKIIRIQSPAGPRHPVVMWRMKAPAKKPLIKREKPEETCAAVRRGSAKKKIHPLQVMSEFRGRQIY
partner: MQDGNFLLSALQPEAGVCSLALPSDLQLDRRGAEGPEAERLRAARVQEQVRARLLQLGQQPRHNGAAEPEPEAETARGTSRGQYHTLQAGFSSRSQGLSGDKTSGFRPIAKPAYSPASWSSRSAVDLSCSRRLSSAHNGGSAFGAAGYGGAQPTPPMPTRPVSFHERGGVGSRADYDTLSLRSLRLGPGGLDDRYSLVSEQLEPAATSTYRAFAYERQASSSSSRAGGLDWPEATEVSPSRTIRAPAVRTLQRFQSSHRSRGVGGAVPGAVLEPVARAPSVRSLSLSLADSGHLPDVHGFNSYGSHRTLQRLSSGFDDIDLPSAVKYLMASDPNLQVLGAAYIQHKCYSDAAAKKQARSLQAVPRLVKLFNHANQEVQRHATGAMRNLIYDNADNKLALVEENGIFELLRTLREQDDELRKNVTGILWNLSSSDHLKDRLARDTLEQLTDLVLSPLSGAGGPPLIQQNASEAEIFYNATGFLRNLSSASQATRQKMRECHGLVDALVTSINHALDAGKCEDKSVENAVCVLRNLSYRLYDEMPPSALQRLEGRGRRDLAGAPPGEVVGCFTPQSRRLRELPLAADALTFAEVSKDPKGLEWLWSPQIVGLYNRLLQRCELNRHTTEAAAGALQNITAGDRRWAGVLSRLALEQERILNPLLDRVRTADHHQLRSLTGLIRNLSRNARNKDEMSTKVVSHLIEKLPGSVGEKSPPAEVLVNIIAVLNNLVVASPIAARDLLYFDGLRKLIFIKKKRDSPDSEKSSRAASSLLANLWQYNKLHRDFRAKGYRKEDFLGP
B2: Catenin alpha-3 (Homo sapiens), Q9UI47-1 (parent)
chain: B1 chain
partner: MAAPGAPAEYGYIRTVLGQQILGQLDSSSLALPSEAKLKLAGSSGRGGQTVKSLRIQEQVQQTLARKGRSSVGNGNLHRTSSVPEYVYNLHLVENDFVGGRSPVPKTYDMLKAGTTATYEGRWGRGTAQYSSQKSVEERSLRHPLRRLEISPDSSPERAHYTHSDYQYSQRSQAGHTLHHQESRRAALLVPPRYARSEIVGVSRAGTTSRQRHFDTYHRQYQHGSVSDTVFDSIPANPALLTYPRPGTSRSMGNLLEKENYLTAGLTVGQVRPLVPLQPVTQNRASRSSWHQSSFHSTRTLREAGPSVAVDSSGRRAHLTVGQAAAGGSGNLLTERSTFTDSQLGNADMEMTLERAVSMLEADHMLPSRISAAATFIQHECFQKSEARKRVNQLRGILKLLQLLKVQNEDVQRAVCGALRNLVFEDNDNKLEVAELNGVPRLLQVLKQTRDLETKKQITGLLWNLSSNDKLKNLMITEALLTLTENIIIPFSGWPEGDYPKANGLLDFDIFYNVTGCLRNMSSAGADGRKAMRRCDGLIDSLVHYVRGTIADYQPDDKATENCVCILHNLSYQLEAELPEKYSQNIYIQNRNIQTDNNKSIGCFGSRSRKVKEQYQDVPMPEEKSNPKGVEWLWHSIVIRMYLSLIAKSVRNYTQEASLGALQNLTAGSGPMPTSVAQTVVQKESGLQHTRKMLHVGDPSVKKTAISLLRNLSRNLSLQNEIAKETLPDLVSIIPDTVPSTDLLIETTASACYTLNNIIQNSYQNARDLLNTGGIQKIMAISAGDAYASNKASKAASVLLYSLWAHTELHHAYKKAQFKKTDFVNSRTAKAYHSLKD
B3: Catenin alpha-3 (Homo sapiens), Q9UI47-1 (parent)
chain: B1 chain
B4: Catenin alpha-3 (Homo sapiens), Q9UI47-1 (parent)
chain: B1 chain
partner: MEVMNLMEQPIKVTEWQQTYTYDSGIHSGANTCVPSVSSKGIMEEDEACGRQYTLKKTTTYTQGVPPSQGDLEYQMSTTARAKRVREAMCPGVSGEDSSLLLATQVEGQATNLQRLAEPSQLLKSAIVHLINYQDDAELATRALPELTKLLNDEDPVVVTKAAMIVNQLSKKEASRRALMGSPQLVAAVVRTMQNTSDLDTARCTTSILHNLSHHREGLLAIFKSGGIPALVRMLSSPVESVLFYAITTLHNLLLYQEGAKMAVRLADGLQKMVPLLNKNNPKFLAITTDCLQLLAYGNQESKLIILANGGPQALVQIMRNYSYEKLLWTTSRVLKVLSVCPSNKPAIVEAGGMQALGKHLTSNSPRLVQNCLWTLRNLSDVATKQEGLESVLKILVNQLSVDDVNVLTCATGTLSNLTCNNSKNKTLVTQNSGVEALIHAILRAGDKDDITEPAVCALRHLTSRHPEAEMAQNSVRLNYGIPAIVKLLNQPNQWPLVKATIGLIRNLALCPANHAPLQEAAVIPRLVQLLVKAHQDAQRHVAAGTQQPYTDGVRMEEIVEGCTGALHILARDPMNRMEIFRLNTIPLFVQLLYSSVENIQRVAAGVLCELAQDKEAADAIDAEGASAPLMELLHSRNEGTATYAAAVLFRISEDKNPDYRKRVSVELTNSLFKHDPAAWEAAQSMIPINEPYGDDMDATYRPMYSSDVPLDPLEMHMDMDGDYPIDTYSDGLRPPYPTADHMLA
B5: Catenin alpha-3 (Homo sapiens), Q9UI47-1 (parent)
chain: B1 chain
partner: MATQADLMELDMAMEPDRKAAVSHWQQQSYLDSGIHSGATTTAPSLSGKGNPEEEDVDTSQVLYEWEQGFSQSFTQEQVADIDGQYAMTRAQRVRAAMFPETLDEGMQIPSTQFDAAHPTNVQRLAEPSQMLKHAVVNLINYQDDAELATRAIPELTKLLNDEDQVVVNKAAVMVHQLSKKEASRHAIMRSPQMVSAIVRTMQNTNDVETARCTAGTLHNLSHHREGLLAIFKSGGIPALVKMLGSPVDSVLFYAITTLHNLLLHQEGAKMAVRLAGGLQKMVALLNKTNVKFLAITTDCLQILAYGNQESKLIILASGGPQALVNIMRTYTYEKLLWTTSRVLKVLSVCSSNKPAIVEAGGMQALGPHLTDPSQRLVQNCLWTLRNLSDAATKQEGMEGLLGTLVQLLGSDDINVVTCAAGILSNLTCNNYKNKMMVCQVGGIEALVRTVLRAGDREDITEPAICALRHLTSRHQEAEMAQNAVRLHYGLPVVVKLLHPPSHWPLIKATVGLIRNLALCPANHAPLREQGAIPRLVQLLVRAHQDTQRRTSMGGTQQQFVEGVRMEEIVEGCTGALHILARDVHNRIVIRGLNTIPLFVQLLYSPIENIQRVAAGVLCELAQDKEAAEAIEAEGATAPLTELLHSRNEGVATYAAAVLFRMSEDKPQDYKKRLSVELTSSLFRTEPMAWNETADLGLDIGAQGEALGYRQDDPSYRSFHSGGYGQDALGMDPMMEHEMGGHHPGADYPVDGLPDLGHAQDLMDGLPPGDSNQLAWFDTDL

Variants of: B1
Conditions: with pkp3_human PKP3, Q9Y446

For V94D, which “effect of a mutation on the interaction” value is on record?
Its value is “with no effect”.

Variants of: B2
Conditions: with PKP2, Q99959-2

With V94D as the variant, how does the “effect of a mutation on the interaction” value read?
Its value is “with no effect”.

Variants of: B3
Conditions: with ctnb1_human CTNNB1, P35222

V94D was tested. Which “effect of a mutation on the interaction” value did it give?
Its value is “disrupting interaction strength”.

Variants of: B3
Conditions: with ctnb1_human CTNNB1, P35222
Remark: another data set of the same source

For V94D, which “effect of a mutation on the interaction” value is on record?
Its value is “decreasing interaction strength”.

Variants of: B3
Conditions: with ctnb1_mouse Ctnnb1, Q02248

Which “effect of a mutation on the interaction” value does the source give for V94D here?
The value was “disrupting interaction strength”.

Variants of: B4
Conditions: with plak_human JUP

With V94D as the variant, how does the “effect of a mutation on the interaction” value read?
Its value is “disrupting interaction strength”.

Variants of: B5
Conditions: with ctnb1_rat Ctnnb1, Q9WU82

For V94D, which “effect of a mutation on the interaction” value is on record?
Its value is “with no effect”.
